Assays:
[1] = biological target: human Collagen triple helix repeat-containing protein 1 (CTHRC1) (human) (UniProt Q96CG8); test: bio-layer interferometry; CTHRC1 species not stated
[2] = biological target: human Collagen triple helix repeat-containing protein 1 (CTHRC1) (human) (UniProt Q96CG8); test: binding EC50 on huCTHRC1; method not stated (ELISA named in text)

Chain of human Collagen triple helix repeat-containing protein 1 (CTHRC1) (human) (Q96CG8 31-243): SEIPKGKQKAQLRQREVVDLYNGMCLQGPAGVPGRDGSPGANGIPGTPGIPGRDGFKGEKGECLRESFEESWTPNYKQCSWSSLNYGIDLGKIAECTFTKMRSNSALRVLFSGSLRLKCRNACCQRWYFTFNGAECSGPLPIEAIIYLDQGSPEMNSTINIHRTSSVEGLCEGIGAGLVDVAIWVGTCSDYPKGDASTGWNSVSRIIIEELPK

Kd [1] | EC50 [2] | Binder
2 nM | 9.76 nM | CTHRC1S-M11 (antibody, V domains shown) VH: QVTLRESGPALVKPTQTLTLTCTFSGFSLSTNVMCVSWIRQPPGKALEWLALIDWDDDKYYSTSLKTRLTISKDTSKNQVVLTMTNMDPVDTATYYCARTGITGTHYYYYYMDVWGKGTTVTVSS VL: AIQMTQSPSSLSASVGDRVTITCRASQGIRNDLGWYQQKPGKAPKLLIYAASSLQSGVPSRFSGSGFGTDFTLTISSLQPEDFATYYCLQDYNYPWTFGQGTKVEIK
3.18 nM | 1.85 nM | CTHRC1S-M5 (antibody, V domains shown) VH: EVQLVESGGGLVTPGGSLRLSCAASGFTFSTYSMNWVRQAPGKGLEWVSSISGSSGHIYYADSVRGRFTISRDNAKNSLYLQMNSLRAEDTAVYYCASMHYYYYLDVWGKGTTVTVSS VL: QAVVTQESALTTSPGETVTLTCRSSTGTVTTSNYVTWVQEKPDHLFTGLIGATNNRAPGVPARFSGSLIGDKAALTITGAQTEDEAIYFCALWYSNHWVFGGGTKLTVL
< 0.001 nM | 0.05 nM | CTHRC1S-M14 (antibody, V domains shown) VH: EVQVVESGGGLVQPGGSLRLSCAASRFTFSNYWMSWVRQAPGRGLEWVANIKQDGSEKYYVDSVKGRFTISRDNAKNSLYLQMNSLRAEDTAVYYCAREGGYCSDTRCFFYMDVWGKGTTVTVSS VL: DIQMTQSPSTLSASVGDRVTITCRASQSIISWLAWYQQKPGKAPKLLIYKASSLEGGVPSRFSGSGSGTDFTLTISSLQPDDFATYYCQQYNSYSRTFGQGTTVEIK

Reference: patent US20250215070A1
